“Also recorded” adds a separate entry of the source.
Experiments:
[1] = tested on: P53-deficient tumor cells (H1299-NC and A549-shP53); test: CCK8 cell activity, P53-deficient tumor cells; type: cell-based
Experimental: (§1) First, a lentivirus kit (purchased from Shanghai Genepharma) was used to construct a P53 stably overexpressing H1299 cell line (H1299-P53) and a P53 stably knockdown A549 cell line […]. The P53 sequence targeted by the shRNA used to knock down P53 in A549 cells was 5′-[…]-3′ (SEQ ID NO: 4). Virus transfection and the construction of stable cell lines were performed according to the kit instructions. […] After treatment for 12 hours, the drug-containing medium was replaced with a normal medium and the cells were further cultured for 72 hours. Cell activity was measured according to the instructions of the CCK8 kit (Dojindo, Tokyo, Japan).
(§2) In this example, another chemical drug, Doxorubicin, was used to verify that Endostatin can enhance the sensitivity of P53-deficient tumor cells to chemotherapy. Operation process was the same as in Example 5.

[2] = tested on: tumor cells with normal P53 function (H1299-P53 and A549-NC); test: CCK8 cell activity, tumor cells with normal P53 function; type: cell-based
Experimental: as §1, §2

[3] = tested on: P53-deficient tumor cells (H1299-NC, A549-shP53); test: Cell colony formation, P53-deficient tumor cells; type: cell-based; conditions: Endostatin 10 μg/ml added 1 h before Etoposide 1 μM, 16 h; colonies after 14 days
Experimental: (§3) After the treatment, the cells were digested with trypsin, counted, and re-plated in a six-well plate with 1000 cells per well. The cells were cultured in a normal medium for 14 days to form cell colonies.

[4] = tested on: tumor cells with normal P53 function (H1299-P53, A549-NC); test: Cell colony formation, tumor cells with normal P53 function; type: cell-based; conditions: Endostatin 10 μg/ml added 1 h before Etoposide 1 μM, 16 h
Experimental: as §3

[5] = tested on: tumor cells with normal P53 function (H1299-P53, A549-NC); test: PI staining apoptosis by flow cytometry, tumor cells with normal P53 function; type: cell-based; conditions: Endostatin 10 μg/ml added 1 h before Etoposide 1 μM, 16 h
Experimental: The apoptotic cells and adherent cells floating in the culture medium were collected, and the cells were suspended in 500 μl PBS containing 0.05 mg/ml propidium iodide (PI), stained for 15 min at room temperature in dark, and detected by flow cytometry (BD FACS Calibur). PI-positive cells represent apoptotic cells.

MDA-MB-435S cells = test: CCK8 cell activity, melanoma MDA-MB-435S; type: cell-based; conditions: MDA-MB-435S (P53 mutant); operation process as in Example 5
Experimental: as §1
(§4) This example used two cell lines of another tumor type (melanoma), the MDA-MB-435S (P53 mutant) and A375 (P53 wild type) cell lines, to verify the regulatory function of Endostatin on the chemotherapeutic sensitivity of other types of tumor cells with different P53 status. Operation process was the same as in Example 5.

A375 cells = test: CCK8 cell activity, melanoma A375; type: cell-based; conditions: A375 (P53 wild type); operation process as in Example 5
Experimental: as §1, §4

[6] = tested on: DNA-PKcs, PARP, γH2AX and Caspase-3 signaling pathways; test: Immunoblotting of DNA damage and apoptotic pathway, P53-deficient tumor cells; type: cell-based; conditions: H1299-NC, A549-shP53; Endostatin 10 μg/ml, Etoposide 10 μM 16 h, z-DEVD-fmk 10 μM; Endostatin and z-DEVD-fmk added 1 h before Etoposide
From the text: In this example, tumor cells (H1299-NC, H1299-P53, A549-NC, A549-shP53) were divided into six treatment groups.

A549-shP53 tumor = test: Subcutaneous tumor growth in nude mice, A549-shP53; type: in vivo; conditions: A549-shP53, Day 27; compared with control group; Endostatin 20 mg/kg i.p. once a day, Etoposide 2 mg/kg i.p. once every two days
Experimental: (§5) Tumor-bearing nude mice were randomly divided into four groups with 6 to 8 animals for each group, and different drug treatments were performed. […] Tumor volume was measured every other day. 2 to 4 weeks after administration, the mice were sacrificed and the tumor tissue was removed for further use.

A549-NC tumor = test: Subcutaneous tumor growth in nude mice, A549-NC; type: in vivo
Experimental: as §5

H1299 mouse tumor model = test: Survival of H1299 tumor-bearing mice; type: in vivo; conditions: administration as in Example 12, stopped after 25 days
Experimental: as §5
(§6) H1299 and A549 cells were cultured in a vigorous and proliferative state, and tumor collection, grouping, and administration methods were the same as in Example 12. The administration was stopped after 25 days, and the survival of the mice was recorded daily, and the survival curve of the mice was plotted.

[7] = tested on: A549 tumor-bearing mice (normal P53 function); test: Survival of A549 tumor-bearing mice; type: in vivo; conditions: A549, normal P53 function (FIG. 13B); compared with control group; administration as in Example 12, stopped after 25 days
Experimental: as §5, §6

[8] = tested on: PCNA and DNA-PKcs protein in H1299-P53 and A549-NC tumor tissues; test: Immunofluorescence of PCNA and DNA-PKcs in tumor tissue, mouse tumor model with normal P53 function; type: in vivo, nude mice; conditions: H1299-P53 and A549-NC tumors of Example 12; quantitative immunofluorescence
Experimental: as §5
The tumor tissue removed in Example 12 was fixed and embedded, and then sectioned. PCNA (a marker molecule indicating the vigorous proliferation status of tumor cells) and DNA-PKcs protein in tumor tissues were stained by immunofluorescence technique, and were observed and imaged with a laser confocal microscope (Nikon A1). The experimental results are shown in FIG. 14A-14D, in which blue represents the nucleus of DAPI-stained cells, green represents the DNA-PKcs protein, and red represents the PCNA protein. Taking the H1299-NC tumor tissue shown in FIG. 14A as an example, the first column on the left represents DNA-PKcs single staining, and the green area represents the DNA-PKcs protein expression level. The second column on the left represents the results of DNA-PKcs (green) merged with nucleus (blue), and the overlapping part is shown in cyan. The third column on the left represents PCNA single staining, and the red area represents the PCNA protein expression level, indicating the strength of tumor cell proliferation. […]

[9] = Operation process as in Example 5, Doxorubicin instead of Etoposide

B1: Endostatin: recombinant natural human endostatin expressed by E. coli, from Protgen, SEQ ID NO: 2 (protein)
chain: MHSHRDFQPVLHLVALNSPLSGGMRGIRGADFQCFQQARAVGLAGTFRAFLSSRLQDLYSIVRRADRAAVPIVNLKDELLFPSWEALFSGSEGPLKPGARIFSFDGKDVLRHPTWPQKSVWHGSDPNGRRLTESYCETWRTEAPSATGQASSLLGGRLLGQSAASCHHAYIVLCIENSFMTASK
modifications: The amino acid sequence of natural human endostatin
[1]; Endostatin 10 μg/ml pretreatment 1 h, Etoposide 0, 0.1, 1, 10 μM, 12 hours treatment, 72 hours further culture
  Effect on toxicity of Etoposide to tumor cells (cell activity): could enhance the toxicity of Etoposide to tumor cells
[1]; [9]
  Effect on toxicity of Doxorubicin to tumor cells (cell activity): could enhance the toxicity of Doxorubicin to tumor cells
[2]; Endostatin 10 μg/ml pretreatment 1 h, Etoposide 0, 0.1, 1, 10 μM
  Effect on the inhibitory effect of Etoposide on cell activity: did not significantly enhance the inhibitory effect of Etoposide
[2]; [9]
  Effect on the inhibitory effect of Doxorubicin on cell activity: did not significantly enhance the inhibitory effect of Doxorubicin
[3]
  Effect on inhibition of tumor cell colony-forming ability by Etoposide: could enhance the inhibitory effect of Etoposide on tumor cell colony-forming ability
[4]
  Effect on inhibition of colony-forming ability by Etoposide: did not significantly enhance theinhibitory effect of Etoposide
[5]
  Effect on the pro-apoptotic effect of Etoposide (PI-positive cells): did not significantly enhance the pro-apoptotic effect of Etoposide
MDA-MB-435S cells
  Effect on toxicity of Etoposide to tumor cells (cell activity): could enhance the toxicity of Etoposide to tumor cells
A375 cells
  Effect on the inhibitory effect of Etoposide on cell activity: did not significantly enhance the inhibitory effect of Etoposide
[6]
  DNA-PKcs, PARP, γH2AX and Caspase-3 signaling pathway levels: did not affect the above-mentioned signaling pathway levels
A549-shP53 tumor
  tumor suppression rate: 37.1%
A549-NC tumor; Day 27, compared with control group, Endostatin 20 mg/kg i.p. once a day, Etoposide 2 mg/kg i.p. once every two days
  tumor suppression rate: 40.9%
A549-NC tumor; Endostatin 20 mg/kg i.p. once a day and Etoposide 2 mg/kg i.p. once every two days
  Effect on the inhibitory effect of Etoposide on tumor growth: could not enhance the inhibitory effect of Etoposide on tumor growth
H1299 mouse tumor model
  median survival time longer than that of the control group: 24.2%
[7]
  Survival time of mice: could prolong the survival time of the mice to some extent
[8]
  Tumor cell proliferation (PCNA) and protein level of DNA-PKcs in tumor tissue: could reduce the proliferation of tumor cells and reduce the protein level of DNA-PKcs; also recorded: did not enhance the inhibitory effect of Etoposide on tumor proliferation and the effect of Etoposide on the protein levels of DNA-PKcs

From US20240165140A1, “MEDICATION FOR INHIBITING DNA-PKCS” (TSINGHUA UNIVERSITY, priority 2017, published 2024)
